Where two headings read alike, the source gives them in different places. Values belong to the molecule of their own block, whether it stands above or below them. Square brackets hold non-standard residues; d marks the D form. Ends that are not written are not given here. pT = C[C@@H](OP(=O)(O)O)[C@H](N)C(=O)O
T1: human Lats1C ΔHM (residue 602–1060) (human, UniProt O95835 602-1060)
T1 sequence: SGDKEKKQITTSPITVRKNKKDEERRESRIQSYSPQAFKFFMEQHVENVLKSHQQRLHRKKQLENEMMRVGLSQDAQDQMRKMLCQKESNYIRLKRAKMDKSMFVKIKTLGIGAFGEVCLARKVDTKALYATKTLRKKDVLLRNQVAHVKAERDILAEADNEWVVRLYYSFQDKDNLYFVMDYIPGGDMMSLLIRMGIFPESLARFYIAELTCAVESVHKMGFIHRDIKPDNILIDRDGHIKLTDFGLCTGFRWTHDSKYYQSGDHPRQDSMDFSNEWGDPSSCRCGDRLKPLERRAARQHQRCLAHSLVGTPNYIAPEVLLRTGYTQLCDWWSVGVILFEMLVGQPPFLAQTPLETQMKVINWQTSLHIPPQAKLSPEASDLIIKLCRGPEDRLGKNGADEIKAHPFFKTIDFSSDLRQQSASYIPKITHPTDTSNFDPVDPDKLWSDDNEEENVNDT

T2: human Mst2 wild type, autophosphorylated (pMst2) (human, UniProt Q13188 9-491)
T2 sequence: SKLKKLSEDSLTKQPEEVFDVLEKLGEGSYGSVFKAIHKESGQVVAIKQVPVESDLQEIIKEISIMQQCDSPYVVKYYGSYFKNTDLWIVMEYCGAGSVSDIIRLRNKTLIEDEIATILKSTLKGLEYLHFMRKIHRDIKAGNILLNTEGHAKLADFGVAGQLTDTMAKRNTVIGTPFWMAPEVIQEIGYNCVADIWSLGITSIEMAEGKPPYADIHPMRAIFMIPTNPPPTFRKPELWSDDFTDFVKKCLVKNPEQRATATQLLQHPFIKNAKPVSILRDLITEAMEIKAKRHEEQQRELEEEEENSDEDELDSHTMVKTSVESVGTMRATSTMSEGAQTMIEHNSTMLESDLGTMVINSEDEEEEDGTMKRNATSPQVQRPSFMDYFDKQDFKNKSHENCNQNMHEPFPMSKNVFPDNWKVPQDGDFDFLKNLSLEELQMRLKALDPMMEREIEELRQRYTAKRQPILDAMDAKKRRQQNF

T3: human pMob1, full length, untagged (phosphorylated by Mst2) (human, UniProt Q9H8S9 1-216, phosphothreonine at 12 and 35)
T3 sequence: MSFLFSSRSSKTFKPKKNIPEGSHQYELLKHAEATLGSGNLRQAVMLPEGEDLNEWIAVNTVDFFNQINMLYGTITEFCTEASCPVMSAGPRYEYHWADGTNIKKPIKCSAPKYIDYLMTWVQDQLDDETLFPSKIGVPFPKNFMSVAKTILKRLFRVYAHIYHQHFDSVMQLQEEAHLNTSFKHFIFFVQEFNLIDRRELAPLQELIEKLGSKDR

B1: human Mob1, full length, unphosphorylated, untagged (natural protein)
chain: T3 sequence
B2: GST-pMst2 MBM (residues 371–401), phosphorylated (domain or fragment, human, UniProt Q13188 371-401, looked up)
chain: DEEEEDG[pT]MKRNATSPQVQRPSFMDYFDKQD
modifications: not fully specified (N-terminus)
B3: GST-Mst2 linker fragment 376–400, phosphorylated with Mst2 kinase domain (domain or fragment, human, UniProt Q13188 376-400, looked up)
chain: DGTMKRNATSPQVQRPSFMDYFDKQ
modifications: not fully specified (N-terminus); also: phosphorylated, sites not given here
B4: human Mst2 ΔL/MBM (contains only the MBM but lacks all other linker residues) (enzyme)
chain: SKLKKLSEDSLTKQPEEVFDVLEKLGEGSYGSVFKAIHKESGQVVAIKQVPVESDLQEIIKEISIMQQCDSPYVVKYYGSYFKNTDLWIVMEYCGAGSVSDIIRLRNKTLIEDEIATILKSTLKGLEYLHFMRKIHRDIKAGNILLNTEGHAKLADFGVAGQLTDTMAKRNTVIGTPFWMAPEVIQEIGYNCVADIWSLGITSIEMAEGKPPYADIHPMRAIFMIPTNPPPTFRKPELWSDDFTDFVKKCLVKNPEQRATATQLLQHPFIKNAKPVSILRDLITEAMEIKAKRHEEQQRELEEEEDEEEEDGTMKRNATSPQVQRPSFMDYFDKQNWKVPQDGDFDFLKNLSLEELQMRLKALDPMMEREIEELRQRYTAKRQPILDAMDAKKRRQQNF
B5: GST-Mst2 371–427, phosphorylated with Mst2 kinase domain (domain or fragment, human, UniProt Q13188 371-427, looked up)
chain: DEEEEDG[pT]MKRNATSPQVQRPSFMDYFDKQDFKNKSHENCNQNMHEPFPMSKNVFPD
modifications: also: GST fusion
B6: human Lats1 602–704 (Lats1 MBD) (domain or fragment)
chain: SGDKEKKQITTSPITVRKNKKDEERRESRIQSYSPQAFKFFMEQHVENVLKSHQQRLHRKKQLENEMMRVGLSQDAQDQMRKMLCQKESNYIRLKRAKMDKSM
B7: synthetic phospho-T378 Mst2 MBM peptide (peptide)
peptide: DEEEEDG[pT]MKRNATSPQVQRPSFMDYFDKQ

What was measured:
[1] = molecular target: PPXY-containing peptide of Lats1
[2] = molecular target: T1, human Lats1C ΔHM (residue 602–1060); assay: SEC
[3] = molecular target: T2, human Mst2 wild type, …; assay: NMR titration
[4] = molecular target: B1; assay: pull-down
[5] = molecular target: B1; assay: ITC
human Mob1 H164A = human Mob1 H164A (human, UniProt Q9H8S9 1-216, H164A); assay: pull-down
human Mob1 F167A = human Mob1 F167A (human, UniProt Q9H8S9 1-216, F167A); assay: pull-down
human Mob1 L207K = human Mob1 L207K (human, UniProt Q9H8S9 1-216, L207K); assay: pull-down
[6] = molecular target: T3, human pMob1, full length, untagged …; assay: crystal structure
[7] = molecular target: B1; assay: ITC; remark: listed apart in the source

- Kd [1]: 156000 nM
Molecule: human Sav WW domains (domain or fragment)

Molecule: B1
- binding result [2]: binds
- binding result [3]: binds

Molecule: B2
- binding result [4]: binds

Molecule: B3
- binding result [4]: binds

Molecule: B4
- Kd [5]: 230 nM

Molecule: B5
- binding result (human Mob1 H164A): binds
- binding result (human Mob1 F167A): binds
- binding result (human Mob1 L207K): binds

Molecule: B6
- binding result [6]: binds

Molecule: B7
- Kd [7]: 119 nM
